The source of these data is KR20200144536A (dated 2020).

For assay [1], the target named is T1, 재조합 hAng-2 (C-His, R&D Systems) (human, UniProt O15123 19-496).
T1 construct: Bought protein; also called 인간 Ang-2 단백질; not shown: C-terminal His tag
T1 sequence: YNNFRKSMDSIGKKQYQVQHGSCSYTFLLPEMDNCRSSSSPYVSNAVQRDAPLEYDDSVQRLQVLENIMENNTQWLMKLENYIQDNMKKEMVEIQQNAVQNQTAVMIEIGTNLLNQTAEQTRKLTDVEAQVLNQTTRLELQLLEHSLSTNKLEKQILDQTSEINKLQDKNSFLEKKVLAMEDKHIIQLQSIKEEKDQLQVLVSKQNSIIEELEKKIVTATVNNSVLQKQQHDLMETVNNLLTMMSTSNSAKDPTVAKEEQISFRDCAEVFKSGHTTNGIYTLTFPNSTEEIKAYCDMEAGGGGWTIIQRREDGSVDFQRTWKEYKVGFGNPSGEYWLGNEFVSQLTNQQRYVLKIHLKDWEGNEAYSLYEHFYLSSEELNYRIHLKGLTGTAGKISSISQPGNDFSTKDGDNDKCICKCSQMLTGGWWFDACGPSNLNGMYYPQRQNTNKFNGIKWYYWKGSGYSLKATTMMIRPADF
Nature of the assay: SPR, BIAcore T100; hAng-2 (C-His) captured on an anti-His CM5 chip, antibody flowed from 100 nM in 2-fold dilutions. Background: Surface plasmon resonance follows binding to a sensor surface in real time, without labels.

Assay [2] has as its target Mutant Ang2 Q418 (알라닌 치환), FLAG-tagged (human) (UniProt O15123). Nature of the assay: ELISA, coated antibody (1000 nM), 250 ng FLAG-tagged mutant Ang2, anti-FLAG-HRP, OD450. For orientation: In an ELISA, binding on a coated surface is turned into a signal by an enzyme label.
Assay [3] addresses Mutant Ang2 Y460 (알라닌 치환), FLAG-tagged (human) (UniProt O15123). Described as above.
For assay [4], the target named is Mutant Ang2 K468 (알라닌 치환), FLAG-tagged (human) (UniProt O15123). The assay is described as above.
Assay [5] concerns the target Mutant Ang2 N467 (알라닌 치환), FLAG-tagged (human) (UniProt O15123). The description is as above.
The target of assay [6] is Mutant Ang2 N421 (알라닌 치환), FLAG-tagged (human) (UniProt O15123). The assay is described as above.
The target of assay [7] is Mutant Ang2 D448 (알라닌 치환), FLAG-tagged (human) (UniProt O15123). The description is as above.
In assay [8] the target is Mutant Ang2 P452 (알라닌 치환), FLAG-tagged (human) (UniProt O15123). The description is as above.
For assay [9], the target named is Mutant Ang2 F469 (알라닌 치환), FLAG-tagged (human) (UniProt O15123). The assay is described as above.
For assay [10], the target named is Mutant Ang2 S417 (알라닌 치환), FLAG-tagged (human) (UniProt O15123). The assay is described as above.
Assay [11] has as its target Mutant Ang2 A449 (알라닌 치환), FLAG-tagged (human) (UniProt O15123). The description is as above.
For assay [12], the target named is Mutant Ang2 I434 (알라닌 치환), FLAG-tagged (human) (UniProt O15123). The description is as above.
Assay [13] concerns the target Mutant Ang2 P419 (알라닌 치환), FLAG-tagged (human) (UniProt O15123). Described as above.
Another assay deals with T2, hTie2-Fc (R&D Systems) (human, UniProt Q02763 23-745).
T2 construct: Bought fusion protein; neither the Tie2 range nor the linker is stated; also called hTie-2/Fc 융합 단백질; not shown: Fc of human IgG1
T2 sequence (Q02763 23-745 limits assumed): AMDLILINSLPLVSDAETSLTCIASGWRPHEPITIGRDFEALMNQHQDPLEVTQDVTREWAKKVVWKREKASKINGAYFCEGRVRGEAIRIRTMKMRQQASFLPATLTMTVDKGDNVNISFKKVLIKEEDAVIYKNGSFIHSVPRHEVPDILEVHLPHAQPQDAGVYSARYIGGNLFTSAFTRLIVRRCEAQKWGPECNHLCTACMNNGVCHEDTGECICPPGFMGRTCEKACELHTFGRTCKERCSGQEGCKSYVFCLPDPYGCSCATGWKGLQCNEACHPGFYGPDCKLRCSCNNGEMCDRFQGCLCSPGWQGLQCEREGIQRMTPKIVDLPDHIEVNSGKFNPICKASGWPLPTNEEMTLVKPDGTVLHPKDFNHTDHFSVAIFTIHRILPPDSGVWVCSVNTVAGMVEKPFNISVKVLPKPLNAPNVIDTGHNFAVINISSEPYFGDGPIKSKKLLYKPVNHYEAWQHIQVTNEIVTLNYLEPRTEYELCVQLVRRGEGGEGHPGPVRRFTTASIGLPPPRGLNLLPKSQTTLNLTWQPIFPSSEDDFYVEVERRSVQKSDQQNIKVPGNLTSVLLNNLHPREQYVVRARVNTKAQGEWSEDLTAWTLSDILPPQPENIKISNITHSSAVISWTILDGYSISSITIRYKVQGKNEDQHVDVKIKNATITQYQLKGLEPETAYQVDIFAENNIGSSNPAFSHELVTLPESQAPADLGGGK
Nature of the assay: Complex ELISA: coated Tie2-Fc (4 ug/ml), 0.25 ug/ml Ang2 and 2 ug/ml 10D6, anti-mouse IgG-HRP, OD450.

B1: SAIT-ANG2-AB-m10D6 (antibody, V domains shown)
VH: DVQLQESGPGLVKPSQSLSLTCTVTGYSITSDYAWNWIRQFPGNKLEWMGYINYSGNTDYNPSLKSRSSITRDTSKNQFFLQLNSVTTGDTATYYCARGNFEGAMDYWGQGTSVTVSS
VL: SIVMTQTPKFLLVSAGDRVTITCKASQSVSNDVAWYQQKPGQSPKLLIYYASNRYPGVPDRFTGSGYGTDFTFTISTVQAEDLAVYFCQQDYSSPWTFGGGTKLEIK
notes: Mouse monoclonal antibody from a hybridoma (KCLRF-BP-00295), purified on protein G; also called 10D6 항체; 10D6 anti-Ang2 항체
For B1, the Kd (in general, the equilibrium constant for the complex coming apart) in assay [1] stood at 8 nM. For the same molecule, the binding to Mutant Ang2 relative to native Ang2 (%) is 38.9% in assay [2]; 103% in assay [3]; 110% in [4]; 107% in [5]; 109% in assay [6]; 105% in assay [7]. In addition, the binding to Mutant Ang2 relative to native Ang2 (%) amounted to 102% in assay [8]; 109% in [9]; 101% in assay [10]; 97.9% in assay [11]; 109% in [12]; 41.1% in assay [13].

B2: Ang2 단백질(R&D systems) (ligand)
chain: T1 sequence
Regarding B2, the binding result with hTie2-Fc (R&D Systems) is given as “binds”.
